Data from patent US12622945B2, “Hard tissue therapeutics” (OrthoTrophix, Inc., priority 2020, dated 2026).
Entries after “also recorded” stand apart in the source; their conditions may differ. Where no end group is shown, it is not given here.

Tests used:
[1] = in vivo
[2] = test system: subjects with bilateral knee osteoarthritis; assay: Multicenter, randomized double-blind, placebo-controlled clinical study in bilateral knee osteoarthritis; assay type: in vivo, human; details: IA injections
Procedure: No other doses of drug or placebo were administered.
MRI of both knees were obtained from these 93 subjects at baseline, 6 and/or 12 months. They were sent to the central readers of cartilage thickness and 3D bone shape, respectively. Both central readers were blinded to the treatment assignment and clinical data throughout their analysis process.
For the 3D bone shape analyses, its central reader first made a qualification review of all MRI images from the 93 subjects since they were obtained primarily for cartilage thickness measurement.
MRIs from the remaining 78 subjects (156 knees: 78 Index and 78 Control) were qualified for analysis of 3D shape of the knee joint bones (B-scores of femur, tibia, and patella).
If all clinical inclusion and exclusion criteria were met, MRIs of both knees were obtained and evaluated by a central reader to determine the ICRS grade (gICRS) of each knee as the final screening criterion. […]
Vital signs were also monitored after the injections.
Adverse events and concomitant medications were recorded.
All KOOS subscale scores, WOMAC Total score and subscale scores, MRI-based patello-femoral and tibiofemoral cartilage thickness, and MRI-based subchondral bone area and 3D bone shape were analyzed.
MRI images were provided to central readers for cartilage and subchondral bone measures, respectively. Central readers were blind as to treatment assignment. […]

[3] = test system: human and rat bone cells; details: human and rat/murine orthologues; cited from earlier work
[4] = biological target: T1, recombinant human integrin αvβ3 (human, UniProt P06756 31-992; P05106 27-718); assay: competition ELISA; coated integrin, biotinylated RGD-Knottin as competitor
T1 construct: Bought from R&D Systems
Procedure: (§1) The following washing and incubation steps were performed according to manuscript. ABTS substrate buffer was prepared by mixing substrate buffer pH4, 20 g/L ABTS and 3% H_2O_2 in the volumetric ratio 10/0.25/0.02.
(§2) Substrate buffer incubation and absorbance measurements were identical to that for binding ELISA. All experiments were carried out in triplicate.

[5] = biological target: T1, recombinant human integrin αvβ3; assay: competition ELISA; coated integrin, biotinylated RGD-Knottin as competitor (FIG. 2)
Procedure: as §1, §2

[6] = biological target: T2, recombinant human integrin αvβ6 (human, UniProt P06756 31-992; P18564 22-707); assay: competition ELISA with Knottin; reference integrin αvβ3
T2 construct: Bought from R&D Systems
Procedure: as §1, §2

[7] = biological target: T3, recombinant human integrin α2β1 (human, UniProt P17301 30-1132; P05556 21-728); assay: as above
T3 construct: Bought from R&D Systems
Procedure: as §1, §2

[8] = biological target: T4, recombinant human integrin α1β1 (human, UniProt P56199 29-1141; P05556 21-728); assay: as above
T4 construct: Bought from R&D Systems
Procedure: as §1, §2

[9] = biological target: T5, recombinant human integrin αvβ1 (human, UniProt P06756 31-992; P05556 21-728); assay: as above
T5 construct: Bought from R&D Systems
Procedure: as §1, §2

[10] = biological target: T6, recombinant human integrin αvβ8 (human, UniProt P06756 31-992; P26012 43-684); assay: as above
T6 construct: Bought from R&D Systems
Procedure: as §1, §2

[11] = biological target: T2, recombinant human integrin αvβ6; assay: integrin binding screen / competition ELISA with RGD-Knottin
[12] = biological target: T3, recombinant human integrin α2β1; assay: as above
[13] = biological target: T4, recombinant human integrin α1β1; assay: as above
[14] = biological target: T5, recombinant human integrin αvβ1; assay: as above
[15] = biological target: T6, recombinant human integrin αvβ8; assay: as above
[16] = biological target: T7, recombinant human integrin α5β1 (human, UniProt P08648 42-995; P05556 21-728); assay: initial integrin binding screen
T7 construct: Bought from R&D Systems; Named only for the initial screening

[17] = biological target: T8, recombinant human integrin α3β1 (human, UniProt P26006 33-991; P05556 21-728); assay: initial integrin binding screen
T8 construct: Bought from R&D Systems; Named only for the initial screening

[18] = biological target: T9, recombinant human integrin α4β1 (human, UniProt P13612 34-970; P05556 21-728, limits assumed); assay: initial integrin binding screen
T9 construct: Bought from R&D Systems; Named only for the initial screening

[19] = biological target: T10, recombinant human integrin α9β1 (human, UniProt Q13797 30-981; P05556 21-728, limits assumed); assay: initial integrin binding screen
T10 construct: Bought from R&D Systems; Named only for the initial screening

[20] = biological target: T11, recombinant human integrin α6β1 (human, UniProt P23229 24-1011; P05556 21-728, limits assumed); assay: initial integrin binding screen
T11 construct: Bought from R&D Systems; Named only for the initial screening

[21] = biological target: T12, recombinant human integrin α10β1 (human, UniProt O75578 23-1122; P05556 21-728, limits assumed); assay: initial integrin binding screen
T12 construct: Bought from R&D Systems; Named only for the initial screening

[22] = biological target: T7, recombinant human integrin α5β1; assay: binding study with Knottin; reference integrin αvβ3
[23] = biological target: T8, recombinant human integrin α3β1; assay: as above
[24] = biological target: T9, recombinant human integrin α4β1; assay: as above
[25] = biological target: T10, recombinant human integrin α9β1; assay: as above
[26] = biological target: T11, recombinant human integrin α6β1; assay: as above
[27] = biological target: T12, recombinant human integrin α10β1; assay: as above

T7 sequence (P08648 42-995 limits assumed, chain 1 of 2): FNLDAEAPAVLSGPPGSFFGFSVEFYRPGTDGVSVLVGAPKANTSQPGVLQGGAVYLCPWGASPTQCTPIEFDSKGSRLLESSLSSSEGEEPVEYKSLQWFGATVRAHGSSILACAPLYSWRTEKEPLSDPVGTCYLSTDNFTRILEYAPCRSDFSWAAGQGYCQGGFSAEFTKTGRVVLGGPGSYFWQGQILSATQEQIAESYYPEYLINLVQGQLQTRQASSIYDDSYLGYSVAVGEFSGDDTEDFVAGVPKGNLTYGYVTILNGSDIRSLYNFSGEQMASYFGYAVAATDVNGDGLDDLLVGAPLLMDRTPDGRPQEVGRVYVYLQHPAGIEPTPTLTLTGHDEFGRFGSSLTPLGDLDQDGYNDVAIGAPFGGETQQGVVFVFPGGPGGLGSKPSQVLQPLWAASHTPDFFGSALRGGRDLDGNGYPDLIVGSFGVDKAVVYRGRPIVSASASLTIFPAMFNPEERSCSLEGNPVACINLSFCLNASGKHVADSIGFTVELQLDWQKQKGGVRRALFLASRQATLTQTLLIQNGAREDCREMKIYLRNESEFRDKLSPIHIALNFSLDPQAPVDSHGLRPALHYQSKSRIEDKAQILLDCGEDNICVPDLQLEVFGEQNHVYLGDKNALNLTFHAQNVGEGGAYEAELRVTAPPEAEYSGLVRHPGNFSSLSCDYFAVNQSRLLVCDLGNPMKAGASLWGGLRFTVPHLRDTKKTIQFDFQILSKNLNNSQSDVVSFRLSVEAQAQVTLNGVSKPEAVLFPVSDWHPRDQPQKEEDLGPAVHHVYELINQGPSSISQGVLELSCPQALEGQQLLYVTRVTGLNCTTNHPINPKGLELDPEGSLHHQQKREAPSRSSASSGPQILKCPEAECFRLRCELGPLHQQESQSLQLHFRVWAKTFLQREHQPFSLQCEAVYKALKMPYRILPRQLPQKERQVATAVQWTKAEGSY
T7 sequence (P05556 21-728 limits assumed, chain 2 of 2): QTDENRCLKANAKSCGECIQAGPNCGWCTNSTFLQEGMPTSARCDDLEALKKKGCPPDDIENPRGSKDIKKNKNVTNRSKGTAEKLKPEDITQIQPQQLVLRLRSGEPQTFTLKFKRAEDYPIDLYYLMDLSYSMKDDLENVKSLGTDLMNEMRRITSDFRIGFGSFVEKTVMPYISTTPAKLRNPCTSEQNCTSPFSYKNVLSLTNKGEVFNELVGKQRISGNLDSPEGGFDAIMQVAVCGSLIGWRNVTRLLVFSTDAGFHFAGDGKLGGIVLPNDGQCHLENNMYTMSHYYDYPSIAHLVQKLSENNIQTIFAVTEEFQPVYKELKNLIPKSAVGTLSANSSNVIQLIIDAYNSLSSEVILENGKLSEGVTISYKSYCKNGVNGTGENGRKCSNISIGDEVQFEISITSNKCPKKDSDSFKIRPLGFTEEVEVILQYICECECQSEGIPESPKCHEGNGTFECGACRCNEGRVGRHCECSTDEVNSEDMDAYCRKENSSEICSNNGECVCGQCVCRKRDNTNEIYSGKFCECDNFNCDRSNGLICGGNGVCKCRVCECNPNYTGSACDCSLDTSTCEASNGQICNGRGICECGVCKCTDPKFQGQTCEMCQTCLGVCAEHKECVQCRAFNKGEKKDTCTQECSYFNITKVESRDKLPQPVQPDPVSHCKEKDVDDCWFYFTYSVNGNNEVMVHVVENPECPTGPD
T9 sequence (P13612 34-970 limits assumed, chain 1 of 2): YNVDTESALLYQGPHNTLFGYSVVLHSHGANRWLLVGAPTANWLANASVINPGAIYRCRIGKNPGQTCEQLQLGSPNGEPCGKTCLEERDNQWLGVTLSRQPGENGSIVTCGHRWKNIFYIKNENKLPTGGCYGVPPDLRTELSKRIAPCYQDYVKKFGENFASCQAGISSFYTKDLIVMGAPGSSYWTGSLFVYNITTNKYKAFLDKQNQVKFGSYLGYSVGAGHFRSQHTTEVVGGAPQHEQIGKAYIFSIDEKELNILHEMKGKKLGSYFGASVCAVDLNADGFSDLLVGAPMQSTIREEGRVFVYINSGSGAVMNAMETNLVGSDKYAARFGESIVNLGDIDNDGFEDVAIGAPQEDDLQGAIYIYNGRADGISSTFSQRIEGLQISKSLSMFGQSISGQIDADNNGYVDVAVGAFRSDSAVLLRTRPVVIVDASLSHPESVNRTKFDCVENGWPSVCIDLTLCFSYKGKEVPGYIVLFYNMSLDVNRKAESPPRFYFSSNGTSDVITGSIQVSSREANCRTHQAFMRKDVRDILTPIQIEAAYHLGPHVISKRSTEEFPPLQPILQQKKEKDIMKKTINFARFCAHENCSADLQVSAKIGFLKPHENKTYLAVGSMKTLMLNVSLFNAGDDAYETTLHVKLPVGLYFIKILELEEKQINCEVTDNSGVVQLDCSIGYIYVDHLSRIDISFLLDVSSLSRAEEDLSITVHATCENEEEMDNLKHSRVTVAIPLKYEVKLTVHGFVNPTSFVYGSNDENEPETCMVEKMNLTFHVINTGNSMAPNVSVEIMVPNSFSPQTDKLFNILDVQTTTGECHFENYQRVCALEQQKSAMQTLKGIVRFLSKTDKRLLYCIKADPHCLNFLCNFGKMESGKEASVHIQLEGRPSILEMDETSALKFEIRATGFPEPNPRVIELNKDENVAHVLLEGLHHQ
T9 sequence (P05556 21-728 limits assumed, chain 2 of 2): as the sequence (P05556 21-728 limits assumed, chain 2 of 2) above
T11 sequence (P23229 other isoform, or with tags, fused parts or gaps limits assumed, chain 1 of 2): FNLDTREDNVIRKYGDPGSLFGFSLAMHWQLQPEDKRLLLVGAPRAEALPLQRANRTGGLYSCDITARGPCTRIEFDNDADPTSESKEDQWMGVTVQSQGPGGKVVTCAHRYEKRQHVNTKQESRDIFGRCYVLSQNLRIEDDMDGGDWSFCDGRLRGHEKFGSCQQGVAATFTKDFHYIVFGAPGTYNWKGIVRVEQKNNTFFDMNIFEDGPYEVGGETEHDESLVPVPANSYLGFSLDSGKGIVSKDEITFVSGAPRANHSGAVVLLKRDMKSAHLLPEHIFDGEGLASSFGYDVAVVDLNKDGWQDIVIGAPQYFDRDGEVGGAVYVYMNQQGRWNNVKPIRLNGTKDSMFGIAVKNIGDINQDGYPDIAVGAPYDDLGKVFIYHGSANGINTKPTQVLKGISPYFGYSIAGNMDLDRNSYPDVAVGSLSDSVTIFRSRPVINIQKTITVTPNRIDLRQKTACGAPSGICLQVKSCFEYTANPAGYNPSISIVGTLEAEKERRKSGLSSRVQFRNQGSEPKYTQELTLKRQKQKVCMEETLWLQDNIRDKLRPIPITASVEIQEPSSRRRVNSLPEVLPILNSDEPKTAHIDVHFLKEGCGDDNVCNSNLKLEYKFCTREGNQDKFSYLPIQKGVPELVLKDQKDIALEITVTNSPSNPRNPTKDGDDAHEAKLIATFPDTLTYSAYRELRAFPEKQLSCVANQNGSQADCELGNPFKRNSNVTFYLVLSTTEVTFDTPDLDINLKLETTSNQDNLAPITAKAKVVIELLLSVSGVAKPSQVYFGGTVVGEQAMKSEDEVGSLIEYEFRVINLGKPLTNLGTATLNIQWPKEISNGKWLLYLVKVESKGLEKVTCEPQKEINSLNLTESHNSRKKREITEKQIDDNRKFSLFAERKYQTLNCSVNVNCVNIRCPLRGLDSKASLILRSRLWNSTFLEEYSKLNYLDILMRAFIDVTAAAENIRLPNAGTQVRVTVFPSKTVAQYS
T11 sequence (P05556 21-728 limits assumed, chain 2 of 2): as the sequence (P05556 21-728 limits assumed, chain 2 of 2) above
T12 sequence (O75578 23-1122 limits assumed, chain 1 of 2): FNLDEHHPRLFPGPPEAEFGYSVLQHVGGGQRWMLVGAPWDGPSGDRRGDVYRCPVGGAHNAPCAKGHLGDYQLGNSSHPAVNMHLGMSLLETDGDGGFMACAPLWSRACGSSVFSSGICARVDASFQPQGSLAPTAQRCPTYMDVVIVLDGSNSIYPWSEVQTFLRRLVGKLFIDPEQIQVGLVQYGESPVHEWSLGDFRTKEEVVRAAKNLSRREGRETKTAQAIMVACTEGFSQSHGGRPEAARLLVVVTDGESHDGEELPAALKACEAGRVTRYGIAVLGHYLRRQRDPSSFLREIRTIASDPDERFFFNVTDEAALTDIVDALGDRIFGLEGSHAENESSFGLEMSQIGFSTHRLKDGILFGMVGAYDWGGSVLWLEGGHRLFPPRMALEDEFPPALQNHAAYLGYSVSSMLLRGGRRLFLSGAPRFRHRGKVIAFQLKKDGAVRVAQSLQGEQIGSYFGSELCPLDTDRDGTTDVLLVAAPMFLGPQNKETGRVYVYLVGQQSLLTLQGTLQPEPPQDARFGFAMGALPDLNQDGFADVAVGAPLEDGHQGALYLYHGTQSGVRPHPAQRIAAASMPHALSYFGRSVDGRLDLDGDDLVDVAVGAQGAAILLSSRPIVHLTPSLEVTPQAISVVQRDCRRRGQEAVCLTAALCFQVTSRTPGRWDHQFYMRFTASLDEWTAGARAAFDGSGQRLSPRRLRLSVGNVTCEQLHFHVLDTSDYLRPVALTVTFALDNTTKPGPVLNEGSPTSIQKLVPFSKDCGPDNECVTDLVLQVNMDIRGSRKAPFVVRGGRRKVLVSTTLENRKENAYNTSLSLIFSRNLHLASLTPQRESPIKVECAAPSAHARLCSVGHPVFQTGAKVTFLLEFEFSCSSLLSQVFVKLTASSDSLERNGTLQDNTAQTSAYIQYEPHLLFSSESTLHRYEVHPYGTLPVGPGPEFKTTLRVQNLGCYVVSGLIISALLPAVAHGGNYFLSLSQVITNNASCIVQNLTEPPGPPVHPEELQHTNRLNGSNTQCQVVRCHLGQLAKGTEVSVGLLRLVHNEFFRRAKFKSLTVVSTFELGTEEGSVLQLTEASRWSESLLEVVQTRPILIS
T12 sequence (P05556 21-728 limits assumed, chain 2 of 2): as the sequence (P05556 21-728 limits assumed, chain 2 of 2) above

TDLQERGDNDISPFSGDGQPFKD-NH2 (C-terminus assumed) [SEQ ID No: 10]
biological effects on cell types, tissues, or organs other than hard tissues [1]: never demonstrated biological effects of the peptide on cell types, tissues, or organs other than cartilage, bone, and dentin | adverse events [2]: no severe adverse events that were related to the peptide; also recorded: mild or moderate, transient | safety and tolerability [2]: safe and well tolerated

PDLLVRGDNDVPPFSGDGQHFMH [SEQ ID No: 14]
biological activities in the bone cells of the other species [3]: interchangeably show biological activities in the bone cells of the other species

B1: peptide of SEQ ID No: 10 (TPX-100) (peptide)
peptide: TDLQERGDNDISPFSGDGQPFKD-NH2
notes: also called human orthologue
IC50 [4]: ~30 µg/mL | IC50 [5]: ~33 µg/mL | fold by which the binding affinity to αvβ3 is higher than to this integrin [6]: ≥ 300 times | fold by which the binding affinity to αvβ3 is higher than to this integrin [7]: ≥ 300 times | fold by which the binding affinity to αvβ3 is higher than to this integrin [8]: ≥ 300 times | fold by which the binding affinity to αvβ3 is higher than to this integrin [9]: ≥ 300 times | fold by which the binding affinity to αvβ3 is higher than to this integrin [10]: ≥ 300 times | binding result [11]: no binding | binding result [12]: no binding | binding result [13]: no binding | binding result [14]: no binding | binding result [15]: no binding | binding result [16]: no binding | binding result [17]: no binding | binding result [18]: no binding | binding result [19]: no binding | binding result [20]: no binding | binding result [21]: no binding | fold by which the binding affinity to αvβ3 is higher than to this integrin [22]: ≥ 300 times | fold by which the binding affinity to αvβ3 is higher than to this integrin [23]: ≥ 300 times | fold by which the binding affinity to αvβ3 is higher than to this integrin [24]: ≥ 300 times | fold by which the binding affinity to αvβ3 is higher than to this integrin [25]: ≥ 300 times | fold by which the binding affinity to αvβ3 is higher than to this integrin [26]: ≥ 300 times | fold by which the binding affinity to αvβ3 is higher than to this integrin [27]: ≥ 300 times
